From the supplement of paper PMC11246515
± gives the standard deviation of the averaged measurements.

Assay: total protein half-life in vivo (active degradation + dilution); higher = more stable protein
[1] = E. coli NCM3722 delta-clpP delta-lon delta-hslV, growth: N-lim chemostat, doubling time 6 h
[2] = E. coli NCM3722 delta-clpP, growth: N-lim chemostat, doubling time 6 h
[3] = E. coli NCM3722 delta-hslV, growth: N-lim chemostat, doubling time 6 h
[4] = E. coli NCM3722 delta-lon, growth: N-lim chemostat, doubling time 6 h
[5] = E. coli NCM3722 delta-smpB, growth: N-lim chemostat, doubling time 6 h
[6] = wild type E. coli NCM3722, growth: C-lim chemostat, doubling time 3 h
[7] = wild type E. coli NCM3722, growth: C-lim chemostat, doubling time 6 h
[8] = wild type E. coli NCM3722, growth: C-lim chemostat, doubling time 12 h
[9] = wild type E. coli NCM3722, growth: N-lim chemostat, doubling time 6 h
[10] = wild type E. coli NCM3722, growth: N-lim chemostat, doubling time 12 h
[11] = wild type E. coli NCM3722, growth: P-lim chemostat, doubling time 6 h
[12] = wild type E. coli NCM3722, growth: P-lim chemostat, doubling time 12 h

Sequence | total protein half-life in vivo [1] | total protein half-life in vivo [2] | total protein half-life in vivo [3] | total protein half-life in vivo [4] | total protein half-life in vivo [5] | total protein half-life in vivo [6] | total protein half-life in vivo [7] | total protein half-life in vivo [8] | total protein half-life in vivo [9] | total protein half-life in vivo [10] | total protein half-life in vivo [11] | total protein half-life in vivo [12]
MEYQLTLNWPDFLERHWQKRPVVLKRGFNNFIDPISPDELAGLAMESEVDSRLVSHQDGKWQVSHGPFESYDHLGETNWSLLVQAVNHWHEPTAALMRPFRELPDWRIDDLMISFSVPGGGVGPHLDQYDVFIIQGTGRRRWRVGEKLQMKQHCPHPDLLQVDPFEAIIDEELEPGDILYIPPGFPHEGYALENAMNYSVGFRAPNTRELISGFADYVLQRELGGNYYSDPDVPPRAHPADVLPQEMDKLREMMLELINQPEHFKQWFGEFISQSRHELDIAPPEPPYQPDEIYDALKQGEVLVRLGGLRVLRIGDDVYANGEKIDSPHRPALDALASNIALTAENFGDALEDPSFLAMLAALVNSGYWFFEG | 5 ± 0.51 h | 5.08 ± 0.63 h | 4.45 ± 0.092 h | 4.25 ± 0.14 h | 4.63 ± 0.28 h | 3.12 ± 0.54 h | 5.25 ± 0.26 h | 10.1 ± 1 h | 4.6 ± 0.32 h | 8.11 ± 0.15 h | 6.71 ± 1.1 h | 13 ± 0.99 h
MLTSFKLHSLKPYTLKSSMILEIITYILCFFSMIIAFVDNTFSIKIYNITAIVCLLSLILRGRQENYNIKNLILPLSIFLIGLLDLIWYSAFKVDNSPFRATYHSYLNTAKIFIFGSFIVFLTLTSQLKSKKESVLYTLYSLSFLIAGYAMYINSIHENDRISFGVGTATGAAYSTMLIGIVSGVAILYTKKNHPFLFLLNSCAVLYVLALTQTRATLLLFPIICVAALIAYYNKSPKKFTSSIVLLIAILASIVIIFNKPIQNRYNEALNDLNSYTNANSVTSLGARLAMYEIGLNIFIKSPFSFRSAESRAESMNLLVAEHNRLRGALEFSNVHLHNEIIEAGSLKGLMGIFSTLFLYFSLFYIAYKKRALGLLILTLGIVGIGLSDVIIWARSIPIIIISAIVLLLVINNRNNTIN | – | – | – | – | 5.65 ± 0.45 h | 3.42 h | – | – | – | – | – | –
MQVKTQSCVVAGKKTVAVTEQTIDWNNNGTLVQITRGGICGSDLHYYQEGKVGNFMIKAPMVLGHEVIGKVIHSDSSELHEGQTVAINPSKPCGHCKYCIEHNENQCTDMRFFGSAMYFPHVDGGFTRYKMVETSQCVPYPAKADEKVMAFAEPLAVAIHAAHQAGELQGKRVFISGVGPIGCLIVSAVKTLGAAEIVCADVSPRSLSLGKEMGADVLVNPQNDDMDHWKAEKGYFDVSFEVSGHPSSVNTCLEVTRARGVMVQVGMGGAMAEFPMMTLIGKEISLRGSFRFTSEFNTAVSWLANGVINPLPLLSAEYPFTDLEEALRFAGDKTQAAKVQLVF | – | – | – | – | – | 1.348 ± 0.0073 h | 2.71 h | 5.81 h | – | – | – | –
MLIIETLPLLRQQIRRLRMEGKRVALVPTMGNLHDGHMKLVDEAKARADVVVVSIFVNPMQFDRPEDLARYPRTLQEDCEKLNKRKVDLVFAPSVKEIYPNGTETHTYVDVPGLSTMLEGASRPGHFRGVSTIVSKLFNLVQPDIACFGEKDFQQLALIRKMVADMGFDIEIVGVPIMRAKDGLALSSRNGYLTAEQRKIAPGLYKVLSSIADKLQAGERDLDEIITIAGQELNEKGFRADDIQIRDADTLLEVSETSKRAVILVAAWLGDARLIDNKMVELA | 5.42 ± 0.33 h | 5.17 ± 0.93 h | 4.941 ± 0.045 h | 5.34 ± 0.1 h | 4.98 ± 0.26 h | 3.1 ± 0.28 h | 5.5 ± 0.056 h | 11.8 ± 2.4 h | 4.868 ± 0.016 h | 8.38 ± 0.16 h | 5.774 ± 0.017 h | 12.5 ± 0.45 h
MFKPELLSPAGTLKNMRYAFAYGADAVYAGQPRYSLRVRNNEFNHENLQLGINEAHALGKKFYVVVNIAPHNAKLKTFIRDLKPVVEMGPDALIMSDPGLIMLVREHFPEMPIHLSVQANAVNWATVKFWQQMGLTRVILSRELSLEEIEEIRNQVPDMEIEIFVHGALCMAYSGRCLLSGYINKRDPNQGTCTNACRWEYNVQEGKEDDVGNIVHKYEPIPVQNVEPTLGIGAPTDKVFMIEEAQRPGEYMTAFEDEHGTYIMNSKDLRAIAHVERLTKMGVHSLKIEGRTKSFYYCARTAQVYRKAIDDAAAGKPFDTSLLETLEGLAHRGYTEGFLRRHTHDDYQNYEYGYSVSDRQQFVGEFTGERKGDLAAVAVKNKFSVGDSLELMTPQGNINFTLEHMENAKGEAMPIAPGDGYTVWLPVPQDLELNYALLMRNFSGETTRNPHGK | 2.98 ± 0.19 h | 1.94 ± 0.45 h | 1.96 ± 0.29 h | 2.01 ± 0.14 h | 1.77 ± 0.092 h | 2.77 ± 0.029 h | 3.68 ± 0.062 h | 5.83 ± 0.49 h | 1.91 ± 0.17 h | 2.5 ± 0.0042 h | 4.1 ± 0.069 h | 7.89 ± 0.33 h
MTTQYGFFIDSSRCTGCKTCELACKDYKDLTPEVSFRRIYEYAGGDWQEDNGVWHQNVFAYYLSISCNHCEDPACTKVCPSGAMHKREDGFVVVDEDVCIGCRYCHMACPYGAPQYNETKGHMTKCDGCYDRVAEGKKPICVESCPLRALDFGPIDELRKKHGDLAAVAPLPRAHFTKPNIVIKPNANSRPTGDTTGYLANPKEV | 5.26 h | – | – | – | – | – | 6.7 h | – | – | – | – | –
MKTFSDRWRQLDWDDIRLRINGKTAADVERALNASQLTRDDMMALLSPAASGYLEQLAQRAQRLTRQRFGNTVSFYVPLYLSNLCANDCTYCGFSMSNRIKRKTLDEADIARESAAIREMGFEHLLLVTGEHQAKVGMDYFRRHLPALREQFSSLQMEVQPLAETEYAELKQLGLDGVMVYQETYHEATYARHHLKGKKQDFFWRLETPDRLGRAGIDKIGLGALIGLSDNWRVDSYMVAEHLLWLQQHYWQSRYSVSFPRLRPCTGGIEPASIMDERQLVQTICAFRLLAPEIELSLSTRESPWFRDRVIPLAINNVSAFSKTQPGGYADNHPELEQFSPHDDRRPEAVAAALTAQGLQPVWKDWDSYLGRASQRL | 4.35 ± 0.4 h | 0.761 ± 0.12 h | 0.71 ± 0.041 h | 1.45 ± 0.13 h | 0.7458 ± 0.0057 h | 0.948 ± 0.075 h | 1.02 ± 0.03 h | 0.988 ± 0.12 h | 0.86 ± 0.0097 h | 1.08 ± 0.084 h | 1.09 ± 0.25 h | 1.93 ± 0.64 h
